Measured values published in patent US7285395B2, “Stearoyl-CoA desaturase 4 gene” (Wisconsin Alumni Research Foundation, priority 2004, dated 2007).

What was measured:
Type in all cases: in vivo, mouse
[1] = system: mSCD1; assay: quantitative RT-PCR of mSCD1 mRNA in hearts of leptin-treated ob/ob mice; settings: heart of leptin-treated ob/ob mice, 12 days
Protocol: (§1) A, SCD activity: Microsomes were prepared from hearts of PBS-treated, ob/ob, ob/ob pair-fed (PF), and leptin-treated (ob/ob-Leptin) mice, and SCD enzyme activity was determined by measuring the incorporation of radioactivity in oleoyl-CoA using [1-^14C]stearoyl-CoA as a substrate. The reaction products were separated by TLC, and the radioactivity was quantitated. Each value represents the mean±S.E. (n=4). B, Levels of monounsaturated fatty acids in the hearts of ob/ob mice: Total fatty acids were extracted from heart of ob/ob mice treated with either leptin or PBS and wild type controls quantitated by GLC as described in the example below. *, p<0.05 versus wt-PBS; #,p<0.05 versus ob/ob-PBS. C, Total RNA was prepared from hearts of PBS or leptin-treated ob/ob mice and used to measure SCD1, SCD2, and SCD4 mRNA levels by quantitative RT-PCR analysis. The fold change relative to that of wild type was calculated after correction for the levels of cyclophilin used as a standard. Each value represents the mean±S.E. (n=4).
(§2) Subcutaneous Leptin Treatment—ob/ob mice were individually caged and allowed to acclimate for a number of days prior to the start of the experiment. […] Body mass and food intake were measured daily. […]

[2] = system: mSCD4; assay: quantitative RT-PCR of mSCD4 mRNA in hearts of leptin-treated ob/ob mice; settings: heart of leptin-treated ob/ob mice, 12 days
Protocol: as §1, §2

[3] = system: ob/ob mice; assay: monounsaturated fatty acid content of hearts of leptin-treated ob/ob mice by GLC; settings: leptin treatment, GLC of total fatty acids
Protocol: as §1, with “standard. […]” for “standard. Each value represents the mean±S.E. (n=4).”
as §2
ob/ob mice have a mutation in the leptin gene and are a model of obesity, insulin resistance, and diabetes. […] To determine which SCD isoform(s) accounted for these effects, we measured RNA levels of mSCD1, mSCD2, and mSCD4. […]

B1: leptin: recombinant mouse leptin (Amgen, Thousand Oaks, Calif.) (protein, UniProt P41160 22-167, looked up)
Leptin: VPIQKVQDDTKTLIKTIVTRINDISHTQSVSAKQRVTGLDFIPGLHPILSLSKMDQTLAVYQQVLTSLPSQNVLQIANDLENLRDLLHLLAFSKSCSLPQTSGLQKPESLDGVLEASLYSTEVVALSRLQGSLQDILQQLDVSPEC
**Q.** With B1 as the molecule, how does the “expression of mSCD1 isoform” value [1] read?
**A.** unchanged

**Q.** And the “decrease of SCD4 mRNA levels” value [2]?
**A.** greater than 75%

**Q.** And the “18:1 content of heart” value [3]?
**A.** reduced to levels comparable with those in wild type mice
